Molecular target: NCoR peptide (Homo sapiens, UniProt O75376)
Experiment: fluorescence polarization

Sequence of NCoR peptide (O75376 whole entry): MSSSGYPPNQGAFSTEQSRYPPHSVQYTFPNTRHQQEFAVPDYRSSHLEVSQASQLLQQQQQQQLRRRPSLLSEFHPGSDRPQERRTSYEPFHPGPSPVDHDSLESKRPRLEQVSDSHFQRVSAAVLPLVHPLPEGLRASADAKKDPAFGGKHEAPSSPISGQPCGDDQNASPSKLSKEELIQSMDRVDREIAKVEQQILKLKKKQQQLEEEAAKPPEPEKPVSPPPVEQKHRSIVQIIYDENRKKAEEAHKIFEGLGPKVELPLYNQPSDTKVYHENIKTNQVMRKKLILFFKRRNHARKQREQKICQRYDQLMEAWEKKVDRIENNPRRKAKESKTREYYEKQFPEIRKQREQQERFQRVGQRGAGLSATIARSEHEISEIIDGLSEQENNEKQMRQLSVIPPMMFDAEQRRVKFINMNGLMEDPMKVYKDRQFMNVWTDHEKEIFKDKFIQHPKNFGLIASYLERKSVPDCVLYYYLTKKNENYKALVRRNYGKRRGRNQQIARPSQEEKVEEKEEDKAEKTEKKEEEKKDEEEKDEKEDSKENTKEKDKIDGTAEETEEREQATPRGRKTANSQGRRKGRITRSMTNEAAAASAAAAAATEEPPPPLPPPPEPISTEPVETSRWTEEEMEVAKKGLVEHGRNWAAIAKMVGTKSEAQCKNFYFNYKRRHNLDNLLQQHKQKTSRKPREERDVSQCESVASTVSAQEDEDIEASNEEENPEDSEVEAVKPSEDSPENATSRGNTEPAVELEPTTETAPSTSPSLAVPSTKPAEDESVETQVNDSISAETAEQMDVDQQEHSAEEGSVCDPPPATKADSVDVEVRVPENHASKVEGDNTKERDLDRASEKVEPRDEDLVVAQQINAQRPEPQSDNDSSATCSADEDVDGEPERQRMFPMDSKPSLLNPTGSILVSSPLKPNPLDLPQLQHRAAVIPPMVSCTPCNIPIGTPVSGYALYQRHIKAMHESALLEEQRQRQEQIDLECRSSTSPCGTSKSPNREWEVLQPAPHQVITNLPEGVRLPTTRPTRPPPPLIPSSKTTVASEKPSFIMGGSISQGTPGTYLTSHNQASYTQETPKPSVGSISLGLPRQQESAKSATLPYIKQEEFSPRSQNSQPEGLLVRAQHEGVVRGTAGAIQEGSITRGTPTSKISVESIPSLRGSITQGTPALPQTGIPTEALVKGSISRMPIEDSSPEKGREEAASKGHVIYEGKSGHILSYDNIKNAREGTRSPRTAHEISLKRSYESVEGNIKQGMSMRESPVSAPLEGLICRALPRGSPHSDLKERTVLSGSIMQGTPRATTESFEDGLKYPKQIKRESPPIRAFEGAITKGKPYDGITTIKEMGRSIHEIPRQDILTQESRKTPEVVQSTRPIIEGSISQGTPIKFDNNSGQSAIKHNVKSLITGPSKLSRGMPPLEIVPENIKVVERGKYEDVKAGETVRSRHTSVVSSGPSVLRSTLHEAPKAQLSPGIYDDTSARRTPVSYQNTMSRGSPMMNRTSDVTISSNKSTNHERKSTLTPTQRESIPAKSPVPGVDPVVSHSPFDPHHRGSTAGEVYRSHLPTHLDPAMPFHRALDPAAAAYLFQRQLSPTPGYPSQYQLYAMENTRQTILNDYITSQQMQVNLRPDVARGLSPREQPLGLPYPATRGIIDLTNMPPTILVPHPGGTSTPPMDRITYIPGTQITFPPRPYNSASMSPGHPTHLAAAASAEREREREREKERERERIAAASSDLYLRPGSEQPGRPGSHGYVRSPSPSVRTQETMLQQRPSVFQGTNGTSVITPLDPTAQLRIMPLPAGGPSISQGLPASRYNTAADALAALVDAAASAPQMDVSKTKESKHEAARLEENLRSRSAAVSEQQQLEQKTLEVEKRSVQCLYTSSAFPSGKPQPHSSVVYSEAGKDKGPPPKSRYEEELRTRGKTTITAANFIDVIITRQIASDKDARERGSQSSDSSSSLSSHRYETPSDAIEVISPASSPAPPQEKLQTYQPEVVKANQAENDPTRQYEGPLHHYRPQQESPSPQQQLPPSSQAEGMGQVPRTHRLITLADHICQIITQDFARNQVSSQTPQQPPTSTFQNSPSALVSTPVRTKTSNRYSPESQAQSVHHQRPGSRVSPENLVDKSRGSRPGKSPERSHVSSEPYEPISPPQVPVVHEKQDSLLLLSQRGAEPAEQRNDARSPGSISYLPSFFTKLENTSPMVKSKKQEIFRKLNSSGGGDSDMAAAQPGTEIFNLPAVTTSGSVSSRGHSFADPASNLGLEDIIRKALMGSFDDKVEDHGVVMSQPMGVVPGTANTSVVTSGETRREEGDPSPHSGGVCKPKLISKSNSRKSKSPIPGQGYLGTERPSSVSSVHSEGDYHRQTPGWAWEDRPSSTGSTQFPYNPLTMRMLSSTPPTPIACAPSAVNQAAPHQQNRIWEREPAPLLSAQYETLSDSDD

B1: PPARγ LBD LBD (protein)
chain: DLRALAKHLYDSYIKSFPLTKAKARAILTGKTTDKSPFVIYDMNSLMMGEDKIKFKHITPLQEQSKEVAIRIFQGCQFRSVEAVQEITEYAKSIPGFVNLDLNDQVTLLKYGVHEIIYTMLASLMNKDGVLISEGQGFMTREFLKSLRKPFGDFMEPKFEFAVKFNALELDDSDLAIFIAVIILSGDRPGLLNVKPIEDIQDNLLQALELQLKLNHPESSQLFAKLLQKMTDLRQIVTEHVQLLQVIKKTETDMSLHPLLQEIYKD
  Kd: 1.4 µM
